{
  "source": "paper PMC4355418",
  "binders": {"B1": {"name": "SUMO-tagged ACR4 KC (sACR4 KC), ACR4 intracellular domain lacking the JMD, Q9LX29 LLSLL motif replaced with AAAAA (residue numbers not printed) (protein)", "chain": "FKEESIVGKGSFSCVYKGVLRDGTTVAVKRAIMSSDKQKNSNEFRTELDLLSRLNHAHAAAAAGYCEECGERLLVYEFMAHGSLHNHLHGKNKALKEQLDWVKRVTIAVQAARGIEYLHGYACPPVIHRDIKSSNILIDEEHNARVADFGLSLLGPVDSGSPLAELPAGTLGYLDPEYYRLHYLTTKSDVYSFGVLLLEILSGRKAIDMHYEEGNIVEWAVPLIKAGDINALLDPVLKHPSEIEALKRIVSVACKCVRMRGKDRPSMDKVTTALERALAQLMGNPSSEQPILPTEVVLGSSRMHKKSWRIGSKRSGSENTEFRGGSWITFPSVTSSQRRKSSASEGDVAEEEDEGRKQQEALRSLEEEIGPASPGQSLFLHHNF"}},
  "experiment_in_all_cases": "peptide binding assay on Ni2+ coated plate (absorbance at 405 nm)",
  "key": {"[1]": {"target": "T1, pJMD1 peptide (JMD1 with phosphorylated Ser475)", "T1 chain": "DTRSSKDSAFTKDNG", "conditions": "chain shown with the change; protein immobilized on a Ni2+ coated plate; triplicate; SUMO control absorbance subtracted; parent: est. 0.29; read off a plot"}, "[2]": {"target": "T2, CRK1 hC peptide (helix-C region of the CRK1 kinase domain)", "T2 chain": "HRRADKDSAFVNELES", "conditions": "chain shown with the change; protein immobilized on a Ni2+ coated plate; triplicate; SUMO control absorbance subtracted; parent: est. 0.39; read off a plot"}, "[3]": {"target": "T3, JMD1 peptide of the ACR4 juxtamembrane domain", "T3 chain": "DTRSSKDSAFTKDNG", "conditions": "chain shown with the change; protein immobilized on a Ni2+ coated plate; triplicate; SUMO control absorbance subtracted; parent: est. 0.14; read off a plot"}},
  "data": [
    {"binder": "B1", "values": [
      {"measurement": "response", "setting": "[1]", "result": 0.17, "unit": "A405"},
      {"measurement": "response", "setting": "[2]", "result": 0.3, "unit": "A405"},
      {"measurement": "response", "setting": "[3]", "result": 0.042, "unit": "A405"}
    ]}
  ]
}
